Reference: publication PMC4821239, “Molecular architecture of the Dam1 complex–microtubule interaction” (Open Biology, 2016)

T1: Dam1 (budding yeast, UniProt P53267 1-343)
T1 construct: Dam1, subunit of the budding yeast Dam1 complex; Subunit inside the recombinant 10-subunit complex; also called Dam1 subunit; source: expressed and purified as part of the Dam1 complex as described [3]
T1 sequence (looked up): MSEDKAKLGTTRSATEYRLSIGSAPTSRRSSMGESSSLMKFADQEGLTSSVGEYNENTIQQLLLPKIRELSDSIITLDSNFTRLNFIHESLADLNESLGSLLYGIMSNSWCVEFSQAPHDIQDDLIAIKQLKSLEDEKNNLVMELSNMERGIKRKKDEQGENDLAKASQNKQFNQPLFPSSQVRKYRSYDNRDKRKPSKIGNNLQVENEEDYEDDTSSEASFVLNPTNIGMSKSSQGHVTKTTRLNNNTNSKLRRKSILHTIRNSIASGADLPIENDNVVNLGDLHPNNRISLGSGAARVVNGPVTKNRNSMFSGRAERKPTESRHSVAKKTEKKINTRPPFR

B1: Dam1 complex (complex, budding yeast)
chain 1: T1 sequence (looked up)
chain 2: MSEQSQLDDSTIDKLIPQIFNEMRSNLNNTTNKFPKSTGGGASDNISANSNSIRSFNSITTQSLLKESESLDKITAMIKNVTAALKNNLPVYVNQVHEVCKSTNSILDSWINIHSQAGYIHKLMSDQTYLKLINDRLHNENVNTNDEDGSTLHNVIALKKKEILDLRQKLENRKGEKDAAPAKPPNQGLNPRYGVQSGRRPVPSAGISNNGRVRKTHVPASKRPSGIPRVTNRWTKPTASSSRKMFR
chain 3: MMASTSNDEEKLISTTDKYFIEQRNIVLQEINETMNSILNGLNGLNISLESSIAVGREFQSVSDLWKTLYDGLESLSDEAPIDEQPTLSQSKTK
chain 4: MDSIDEQIAIKRKELQSLQKITSLTDGLKIQLTELNEQIKEMGMNADSVAQLMNNWDSIINNISQASLGLLQYAEGDYEIGPWKDSKKKESEQSNETGLEAQENDKNDEDNDEDEDLVPLPETMVRIRVDGNE
chain 5: MEHNLSPLQQEVLDKYKQLSLDLKALDETIKELNYSQHRQQHSQQETVSPDEILQEMRDIEVKIGLVGTLLKGSVYSLILQRKQEQESLGSNSK
chain 6: MENPHEQVQANILSRIIGNVKRLNESVAILNQELVTINNRNKNLEIMGAICDNYHSSVQFNLEATNNKKPPL
chain 7: MNANKQRQYNQLAHELRELQTNLQETTKQLDIMSKQCNENLVGQLGKVHGSWLIGSYIYYMEQMLGKTQ
chain 8: MDSASKEETLEKLDQEITVNLQKIDSNLSFCFHKITQDIIPHVATYSEICERIMDSTEWLGTMFQETGLVNLQANAAAPVGNAPVKSLVSNNVGIFPTSAEEASRQSQTDNGPNEADSAVHVNRDVHSMFNNDSIDDFHTANITSTGQILKLPDSSDEDTGSEAVPSREQTDLTGEGHGGADDEQDESTIQRQSRKRKISLLLQQQYGSSSSMVPSPIVPNKMRKQLAHEEHINNDGDNDDENSNNIESSPLKQGHHHPKGQADDNNEGPDEEESTKEVPKPGTIIHFSTNR
chain 9: MTDALEQSVLALEGTVSVLKDSVESLKCANEPSTNLASTMLQTKRVFRLVPEYDVERSKLDLIEEVEPLVRTLGDKLRKSMGRMQRELDTLQQTYELNDLRLKKNISMDDDDALNSPDMGQEYEGRDADDVVMMASSTNEELEELKKLKEKKKQLENKLEILKQK
chain 10: MGESLDRCIDDINRAVDSMSTLYFKPPGIFHNAILQGASNKASIRKDITRLIKDCNHDEAYLLFKVNPEKQSVSRRDGKEGVFDYVIKRDTDMKRNRRLGRPGEKPIIHVPKEVYLNKDRLDLNNKRRRTATTSGGGLNGFIFDTDLIGSSVISNSSSGTFKALSAVFKDDPQIQRLLYALENGSVLMEEESNNQRRKTIFVEDFPTDLILKVMAEVTDLWPLTEFKQDYDQLYHNYEQLSSKLRFIKKEVLLQDDRLKTMSQYHPSSSHDVAKIIRKEKDEIRRLEMEIANLQE
notes: Dam1, budding yeast; Duo1, budding yeast; Dad1, budding yeast; Dad2, budding yeast; Dad3, budding yeast; Dad4, budding yeast; Hsk3, budding yeast; Ask1, budding yeast; Spc19, budding yeast; Spc34, budding yeast; 10-subunit complex; also called heterodecameric Dam1 complex; wild-type Dam1 complex; source: expressed and purified as described [3]; copies: + + + + + + + + +
B2: Spc19 (natural protein, budding yeast, UniProt Q03954 1-165, looked up)
chain: B1 chain 9
notes: Spc19, subunit of the budding yeast Dam1 complex; Subunit inside the recombinant 10-subunit complex; also called Sp19; source: expressed and purified as part of the Dam1 complex as described [3]
B3: Spc34 (natural protein, budding yeast, UniProt P36131 1-295, looked up)
chain: B1 chain 10
notes: Spc34, subunit of the budding yeast Dam1 complex; Subunit inside the recombinant 10-subunit complex; source: expressed and purified as part of the Dam1 complex as described [3]
B4: Duo1 (natural protein, budding yeast, UniProt P53168 1-247, looked up)
chain: B1 chain 2
notes: Duo1, subunit of the budding yeast Dam1 complex; Subunit inside the recombinant 10-subunit complex; also called Duo1 subunit; source: expressed and purified as part of the Dam1 complex as described [3]
B5: Ask1 (natural protein, budding yeast, UniProt P35734 1-292, looked up)
chain: B1 chain 8
notes: Ask1, subunit of the budding yeast Dam1 complex; Subunit inside the recombinant 10-subunit complex; source: expressed and purified as part of the Dam1 complex as described [3]
B6: Dad2 (natural protein, budding yeast, UniProt P36162 1-133, looked up)
chain: B1 chain 4
notes: Dad2, subunit of the budding yeast Dam1 complex; Subunit inside the recombinant 10-subunit complex; source: expressed and purified as part of the Dam1 complex as described [3]
B7: Duo1Δ184 (domain or fragment, budding yeast, UniProt P53168 1-183, looked up)
chain: MSEQSQLDDSTIDKLIPQIFNEMRSNLNNTTNKFPKSTGGGASDNISANSNSIRSFNSITTQSLLKESESLDKITAMIKNVTAALKNNLPVYVNQVHEVCKSTNSILDSWINIHSQAGYIHKLMSDQTYLKLINDRLHNENVNTNDEDGSTLHNVIALKKKEILDLRQKLENRKGEKDAAPAK
notes: Duo1, budding yeast; stop codon inserted at position 184; Subunit inside the Dam1 complex Duo1Δ184; also called Duo1 lacking its C terminus (Δ184); source: purified as part of the Dam1 complex Duo1Δ184 (Ni–NTA, Superose 6 size-exclusion chromatography)

Columns and labels:
[1] = target: the molecule itself; assay: cross-linking; BS3, Dam1 complex at 0.05 mg/ml in solution; cross-linked species (approx. 110, 220 and 440 kDa) separated by SDS-PAGE, bands cut out, in-gel trypsin digestion, mass spectrometry
Dam1 [2] = target: T1, Dam1; assay: cross-linking; BS3, Dam1 complex at 0.3 mg/ml in BRB80, room temperature 40-60 min, digested in solution, mass spectrometry; some links may be between oligomerizing complexes; details: both partners purified
Ask1 [3] = target: B5; assay: as above; details: both partners purified
Duo1 = target: B4; assay: as above; details: both partners purified
Spc34 [4] = target: B3; assay: cross-linking; BS3, Dam1 complex at 0.05 mg/ml in solution; cross-linked species (approx. 110, 220 and 440 kDa) separated by SDS-PAGE, bands cut out, in-gel trypsin digestion, mass spectrometry; details: both partners purified
Spc34 [5] = target: B3; assay: cross-linking; BS3, Dam1 complex at 0.3 mg/ml in BRB80, room temperature 40-60 min, digested in solution, mass spectrometry; some links may be between oligomerizing complexes; details: both partners purified
Ask1 [6] = target: B5; assay: cross-linking; EDC with Sulfo-NHS, Dam1 complex assembled on taxol-stabilized microtubules in BRB80, pellet washed, room temperature 1 h, digested in solution, mass spectrometry; details: both partners purified
Spc19 = target: B2; assay: cross-linking; BS3, Dam1 complex at 0.05 mg/ml in solution; cross-linked species (approx. 110, 220 and 440 kDa) separated by SDS-PAGE, bands cut out, in-gel trypsin digestion, mass spectrometry; details: both partners purified
Dam1 [7] = target: T1, Dam1; assay: cross-linking; BS3, size-exclusion fraction of the Dam1 complex Duo1Δ184 eluting as the full complex, mass spectrometry; details: both partners purified

For B1, the “stoichiometry N” value [1] was 2.

B2: binds (Dam1 [2]); binds (Ask1 [3]); binds (Duo1). B2: binds (Spc34 [4]).

B3: binds (Dam1 [2]).

B4: binds (Dam1 [2]); binds (Ask1 [3]); binds (Spc34 [5]).

B5: binds (Dam1 [2]); binds (Spc34 [5]).

B6: binds (Dam1 [2]); binds (Ask1 [6]); binds (Spc19).

B7: binds (Dam1 [7]).
